The values that follow come from patent US20240327489A1.

Assay [1] deals with putative Btnl2 receptor on activated CD4+ T cells. The experiment in a line: cell-based or functional assay.
Assay [2] shares this target. The assay can be described thus: flow cytometry, Fc-fusion staining of activated mouse CD4+ T cells at 72 hours. Background: In flow cytometry, cells or beads pass a laser one at a time.

Take “mouse Btnl2-Fc (from UniProt O70355 24-454) (Fc fusion)”: the cytokine production of activated CD4+ T cells after 72 hours of culture in assay [1] was more than 40%. Besides, the decrease in binding with CD28 co-stimulation (α-CD3/α-CD28 against α-CD3 alone) in assay [2] turned out to be 50%.
